Source: patent US20190241648A1 (STATEN BIOTECHNOLOGY B V, published 2019)
Ends that are not written are not given here.

Assays:
Test in all cases: peptide microarray
[1] = target: T1, wild-type ApoC3 peptide DKFSEFWDLDPEV (SEQ ID NO: 44) (human, not fully specified (bridges); also: cyclic constrained, ring type and positions not given here)
T1 construct: 13 aa cyclic constrained peptide
T1 peptide: DKFSEFWDLDPEV
Protocol: (§1) F64 was completely variable.
(§2) Pre: staining of one of the ApoC3 peptide microarrays was done with the secondary antibody goat anti-human IgG (Fe) DyLight680 (1:5000) and control antibody mouse monoclonal anti-HA (12CA5) DyLight800 (1:2000) to investigate background interactions of the secondary antibody with the antigen-derived peptides that could interfere with the main assays. Subsequent incubation of other ApoC3 peptide microarrays with antibody samples was followed by staining with secondary and control antibodies as well as read-out at scanning intensities of 7/7 (red/green). The additional HA peptides framing the peptide arrays were stained as internal quality control to confirm the assay quality and the peptide microarray integrity.

ApoC3 peptide … S62A = ApoC3 peptide … S62A (human, cyclic constrained)
Protocol: as §1, §2

ApoC3 peptide … E63A = ApoC3 peptide … E63A (human, cyclic constrained)
Protocol: as §1, §2

ApoC3 peptide … V71A = ApoC3 peptide … V71A (human, cyclic constrained)
Protocol: as §1, §2

ApoC3 peptide … L67C = target: T2, ApoC3 peptide … L67C (human, not fully specified (bridges); also: cyclic constrained)
T2 peptide: DKFSEFWDCDPEV
Protocol: as §1, §2

ApoC3 peptide … P69C = target: T3, ApoC3 peptide … P69C (human, not fully specified (bridges); also: cyclic constrained)
T3 peptide: DKFSEFWDLDCEV
Protocol: as §1, §2

ApoC3 peptide … D59E = target: T4, ApoC3 peptide … D59E (human, cyclic constrained)
T4 peptide: EKFSEFWDLDPEV
Protocol: as §1, §2

ApoC3 peptide … D68E = target: T5, ApoC3 peptide … D68E (human, cyclic constrained)
T5 peptide: DKFSEFWDLEPEV
Protocol: as §1, §2

ApoC3 peptide … D68F = target: T6, ApoC3 peptide … D68F (human, cyclic constrained)
T6 peptide: DKFSEFWDLFPEV
Protocol: as §1, §2

ApoC3 peptide … W65H = target: T7, ApoC3 peptide … W65H (human, not fully specified (bridges); also: cyclic constrained, ring type and places not given here)
T7 peptide: DKFSEFHDLDPEV
Protocol: as §1, §2

ApoC3 peptide … D59I = target: T8, ApoC3 peptide … D59I (human, cyclic constrained)
T8 peptide: IKFSEFWDLDPEV
Protocol: as §1, §2

ApoC3 peptide … L67I = target: T9, ApoC3 peptide … L67I (human, not fully specified (bridges); also: cyclic constrained)
T9 peptide: DKFSEFWDIDPEV
Protocol: as §1, §2

ApoC3 peptide … D66L = target: T10, ApoC3 peptide … D66L (human, not fully specified (bridges); also: cyclic constrained)
T10 peptide: DKFSEFWLLDPEV
Protocol: as §1, §2

ApoC3 peptide … K60M = target: T11, ApoC3 peptide … K60M (human, not fully specified (bridges); also: cyclic constrained)
T11 peptide: DMFSEFWDLDPEV
Protocol: as §1, §2

ApoC3 peptide … V71M = ApoC3 peptide … V71M (human, cyclic constrained)
Protocol: as §1, §2

ApoC3 peptide … S62P = ApoC3 peptide … S62P (human, cyclic constrained)
Protocol: as §1, §2

ApoC3 peptide … W65P = target: T12, ApoC3 peptide … W65P (human, not fully specified (bridges); also: cyclic constrained, ring type and places not given here)
T12 peptide: DKFSEFPDLDPEV
Protocol: as §1, §2

ApoC3 peptide … D68P = target: T13, ApoC3 peptide … D68P (human, cyclic constrained)
T13 peptide: DKFSEFWDLPPEV
Protocol: as §1, §2

ApoC3 peptide … K60Q = target: T14, ApoC3 peptide … K60Q (human, not fully specified (bridges); also: cyclic constrained)
T14 peptide: DQFSEFWDLDPEV
Protocol: as §1, §2

ApoC3 peptide … S62Q = ApoC3 peptide … S62Q (human, cyclic constrained)
Protocol: as §1, §2

ApoC3 peptide … L67Q = target: T15, ApoC3 peptide … L67Q (human, not fully specified (bridges); also: cyclic constrained)
T15 peptide: DKFSEFWDQDPEV
Protocol: as §1, §2

ApoC3 peptide … D59R = target: T16, ApoC3 peptide … D59R (human, cyclic constrained)
T16 peptide: RKFSEFWDLDPEV
Protocol: as §1, §2

ApoC3 peptide … E63R = ApoC3 peptide … E63R (human, cyclic constrained)
Protocol: as §1, §2

ApoC3 peptide … L67R = target: T17, ApoC3 peptide … L67R (human, not fully specified (bridges); also: cyclic constrained)
T17 peptide: DKFSEFWDRDPEV
Protocol: as §1, §2

ApoC3 peptide … D68R = target: T18, ApoC3 peptide … D68R (human, cyclic constrained)
T18 peptide: DKFSEFWDLRPEV
Protocol: as §1, §2

ApoC3 peptide … L67S = target: T19, ApoC3 peptide … L67S (human, not fully specified (bridges); also: cyclic constrained)
T19 peptide: DKFSEFWDSDPEV
Protocol: as §1, §2

ApoC3 peptide … V71S = ApoC3 peptide … V71S (human, cyclic constrained)
Protocol: as §1, §2

ApoC3 peptide … V71T = ApoC3 peptide … V71T (human, cyclic constrained)
Protocol: as §1, §2

ApoC3 peptide … K60V = target: T20, ApoC3 peptide … K60V (human, not fully specified (bridges); also: cyclic constrained)
T20 peptide: DVFSEFWDLDPEV
Protocol: as §1, §2

ApoC3 peptide … W65V = target: T21, ApoC3 peptide … W65V (human, not fully specified (bridges); also: cyclic constrained, ring type and places not given here)
T21 peptide: DKFSEFVDLDPEV
Protocol: as §1, §2

ApoC3 peptide … D66V = target: T22, ApoC3 peptide … D66V (human, not fully specified (bridges); also: cyclic constrained)
T22 peptide: DKFSEFWVLDPEV
Protocol: as §1, §2

ApoC3 peptide … D59W = target: T23, ApoC3 peptide … D59W (human, not fully specified (bridges); also: cyclic constrained)
T23 peptide: WKFSEFWDLDPEV
Protocol: as §1, §2

ApoC3 peptide … S62W = ApoC3 peptide … S62W (human, cyclic constrained)
Protocol: as §1, §2

ApoC3 peptide … D59Y = target: T24, ApoC3 peptide … D59Y (human, not fully specified (bridges); also: cyclic constrained)
T24 peptide: YKFSEFWDLDPEV
Protocol: as §1, §2

ApoC3 peptide … W65Y = target: T25, ApoC3 peptide … W65Y (human, not fully specified (bridges); also: cyclic constrained, ring type and places not given here)
T25 peptide: DKFSEFYDLDPEV
Protocol: as §1, §2

ApoC3 peptide … V71Y = ApoC3 peptide … V71Y (human, cyclic constrained)
Protocol: as §1, §2

B1: anti-ApoC3 antibody 6A6 (antibody, V domains shown)
VH: EVQLVESGGGLVQPGGSLRLSCAASGFTFSSYAGRWVRQVPGKGLEWVSSINAGGGSTSYADSVKGRFTISRDNAKNTLYLQMNSLKPEDTAKYYCTQNSYRYWGQGTRVAVSS
VL: DVVLTQTPGSLSVVPGESASISCKASQSLIHTDGKTYLYWLLQKPGQRPQLLIYQVSSHESGVPDRFTGSGSGTDFTLKISGVKAEDAGVYYCAQATYNPRTFGQGTKLEIK
notes: it was detected with goat anti-human IgG (Fc); also called mAb 6A6; llama antibody 6A6
- % of binding to wild-type peptide [1]: 100%
- % of binding to wild-type peptide (ApoC3 peptide … S62A): 97.3%
- % of binding to wild-type peptide (ApoC3 peptide … E63A): 36.7%
- % of binding to wild-type peptide (ApoC3 peptide … V71A): 85.2%
- % of binding to wild-type peptide (ApoC3 peptide … L67C): 1.13%
- % of binding to wild-type peptide (ApoC3 peptide … P69C): 28.9%
- % of binding to wild-type peptide (ApoC3 peptide … D59E): 170%
- % of binding to wild-type peptide (ApoC3 peptide … D68E): 56.9%
- % of binding to wild-type peptide (ApoC3 peptide … D68F): 0%
- % of binding to wild-type peptide (ApoC3 peptide … W65H): 17%
- % of binding to wild-type peptide (ApoC3 peptide … D59I): 103%
- % of binding to wild-type peptide (ApoC3 peptide … L67I): 105%
- % of binding to wild-type peptide (ApoC3 peptide … D66L): 0%
- % of binding to wild-type peptide (ApoC3 peptide … K60M): 146%
- % of binding to wild-type peptide (ApoC3 peptide … V71M): 105%
- % of binding to wild-type peptide (ApoC3 peptide … S62P): 27.1%
- % of binding to wild-type peptide (ApoC3 peptide … W65P): 13.8%
- % of binding to wild-type peptide (ApoC3 peptide … D68P): 0%
- % of binding to wild-type peptide (ApoC3 peptide … K60Q): 140%
- % of binding to wild-type peptide (ApoC3 peptide … S62Q): 111%
- % of binding to wild-type peptide (ApoC3 peptide … L67Q): 25.7%
- % of binding to wild-type peptide (ApoC3 peptide … D59R): 70.2%
- % of binding to wild-type peptide (ApoC3 peptide … E63R): 5.31%
- % of binding to wild-type peptide (ApoC3 peptide … L67R): 22.6%
- % of binding to wild-type peptide (ApoC3 peptide … D68R): 0.66%
- % of binding to wild-type peptide (ApoC3 peptide … L67S): 26.5%
- % of binding to wild-type peptide (ApoC3 peptide … V71S): 84.7%
- % of binding to wild-type peptide (ApoC3 peptide … V71T): 94.5%
- % of binding to wild-type peptide (ApoC3 peptide … K60V): 106%
- % of binding to wild-type peptide (ApoC3 peptide … W65V): 24%
- % of binding to wild-type peptide (ApoC3 peptide … D66V): 0%
- % of binding to wild-type peptide (ApoC3 peptide … D59W): 78.1%
- % of binding to wild-type peptide (ApoC3 peptide … S62W): 4.78%
- % of binding to wild-type peptide (ApoC3 peptide … D59Y): 70.2%
- % of binding to wild-type peptide (ApoC3 peptide … W65Y): 26.7%
- % of binding to wild-type peptide (ApoC3 peptide … V71Y): 87.3%
